Results: the Immune Epitope Database (IEDB)

Legend:
HLA-A*11:01 = test: IEDB peptide-MHC binding, purified MHC/competitive/fluorescence; ≥ and ≤ were set here for values at or beyond the usual limits of such assays
HLA-A*24:02 = test: as above
HLA-B*18:01 = test: IEDB peptide-MHC binding, purified MHC/competitive/radioactivity; filed as Kd, often an IC50 or EC50 that approximates it; ≥ and ≤ were set here for values at or beyond the usual limits of such assays
HLA-B*40:01 = test: as above
HLA-B*40:02 = test: as above
HLA-B*44:02 = test: as above
HLA-B*44:03 = test: as above
HLA-B*45:01 = test: as above
HLA-B*48:01 = test: IEDB peptide-MHC binding, purified MHC/direct/fluorescence; filed as Kd, often an IC50 or EC50 that approximates it; ≥ and ≤ were set here for values at or beyond the usual limits of such assays; settings: source organism: Dengue virus
HLA-A*01:01 = test: IEDB peptide-MHC binding, purified MHC/competitive/radioactivity; filed as Kd, often an IC50 or EC50 that approximates it; ≥ and ≤ were set here for values at or beyond the usual limits of such assays; settings: source organism: Dengue virus 2 Jamaica/1409/1983
HLA-A*30:02 = test: as above; settings: source organism: Dengue virus 2 Jamaica/1409/1983
HLA-B*58:01 [1] = test: as above
HLA-A*02:01 [2] = test: as above
HLA-A*02:03 = test: as above
HLA-A*02:17 = test: as above
HLA-A*32:01 = test: as above; settings: source organism: Dengue virus 3 Martinique/1243/1999
HLA-A*02:01 [3] = test: IEDB peptide-MHC binding, purified MHC/competitive/fluorescence; ≥ and ≤ were set here for values at or beyond the usual limits of such assays; settings: source organism: Zaire ebolavirus
HLA-A*02:01 [4] = test: IEDB peptide-MHC binding, purified MHC/direct/fluorescence; filed as Kd, often an IC50 or EC50 that approximates it; ≥ and ≤ were set here for values at or beyond the usual limits of such assays; settings: source organism: Orthohantavirus hantanense
HLA-A*02:11 = test: as above; settings: source organism: Hantaanvirus CGRn93P8
HLA-A*02:12 = test: as above; settings: source organism: Hantaanvirus CGRn93P8
HLA-A*02:19 = test: as above; settings: source organism: Hantaanvirus CGRn93P8
HLA-B*15:17 = test: as above; settings: source organism: Vibrio parahaemolyticus
HLA-B*57:01 [5] = test: as above; settings: source organism: Vibrio parahaemolyticus
HLA-B*58:01 [6] = test: as above; settings: source organism: Vibrio parahaemolyticus
HLA-B*57:01 [7] = test: IEDB peptide-MHC binding, purified MHC/competitive/radioactivity; filed as Kd, often an IC50 or EC50 that approximates it; ≥ and ≤ were set here for values at or beyond the usual limits of such assays; settings: source organism: Dengue virus 2 Jamaica/1409/1983
[8] = source organism: Vaccinia virus
[9] = source organism: SARS coronavirus Tor2
[10] = source organism: Mammarenavirus lassaense
[11] = source organism: Dengue virus 2 Jamaica/1409/1983
[12] = source organism: Mammarenavirus machupoense
[13] = source organism: Zaire ebolavirus
[14] = source organism: Dengue virus 1 Singapore/S275/1990
[15] = source organism: Dengue virus 1 Brazil/97-11/1997
[16] = source organism: Dengue virus 4 Philippines/H241/1956
[17] = source organism: Dengue virus 3 Martinique/1243/1999
[18] = source organism: Dengue virus 2 Thailand/NGS-C/1944
[19] = source organism: Dengue virus 3 Singapore/8120/1995

Sequence: PYEGGKVFA
- IC50 (HLA-A*11:01; [8]): ≥ 118 µM
- IC50 (HLA-A*24:02; [8]): 13.9 µM

Sequence: QEIQLLAAV
- Kd (HLA-B*18:01; [9]): 0.143 µM
- Kd (HLA-B*40:01; [9]): 0.0265 µM
- Kd (HLA-B*40:02; [9]): 19.3 µM
- Kd (HLA-B*44:02; [9]): 0.0933 µM
- Kd (HLA-B*44:03; [9]): 0.0485 µM
- Kd (HLA-B*45:01; [9]): 0.00872 µM

Sequence: REAYCQEFSL
- Kd (HLA-B*18:01; [10]): 11.3 µM
- Kd (HLA-B*40:01; [10]): 9.78 µM
- Kd (HLA-B*40:02; [10]): 0.00134 µM
- Kd (HLA-B*44:02; [10]): 1.06 µM
- Kd (HLA-B*44:03; [10]): 2.79 µM
- Kd (HLA-B*45:01; [10]): 1.54 µM

Sequence: REPAGLGSM
- Kd (HLA-B*18:01; [10]): 8.15 µM
- Kd (HLA-B*40:01; [10]): 7.91 µM
- Kd (HLA-B*40:02; [10]): 0.0859 µM
- Kd (HLA-B*44:02; [10]): ≥ 33.5 µM
- Kd (HLA-B*44:03; [10]): ≥ 78.1 µM
- Kd (HLA-B*45:01; [10]): ≥ 77.7 µM

Sequence: RRDKRSVAL
- Kd (HLA-B*48:01): 0.153 µM

Sequence: RSLIGNEEY
- Kd (HLA-A*01:01): 6.72 µM
- Kd (HLA-A*30:02): ≥ 30.1 µM
- Kd (HLA-B*58:01 [1]; [11]): 0.0272 µM

Sequence: RSVALVPHV
- Kd (HLA-B*58:01 [1]; [11]): 0.00881 µM

Sequence: SDHLISEML
- Kd (HLA-B*18:01; [12]): ≥ 77.5 µM
- Kd (HLA-B*40:01; [12]): ≥ 22.4 µM
- Kd (HLA-B*40:02; [12]): 0.217 µM
- Kd (HLA-B*44:02; [12]): 12.2 µM
- Kd (HLA-B*44:03; [12]): ≥ 31.7 µM
- Kd (HLA-B*45:01; [12]): 17.2 µM

Sequence: SIPLGVIHN
- IC50 (HLA-A*11:01; [13]): ≥ 158 µM

Sequence: SLSMTCIAV
- Kd (HLA-A*02:01 [2]; [14]): 0.0134 µM
- Kd (HLA-A*02:03; [15]): 0.124 µM
- Kd (HLA-A*02:17; [14]): 0.0491 µM

Sequence: SMAMTCIAV
- Kd (HLA-A*02:01 [2]; [16]): 0.0119 µM
- Kd (HLA-A*02:03; [16]): 0.00407 µM
- Kd (HLA-A*02:17; [16]): 0.074 µM

Sequence: SMINGVVKL
- Kd (HLA-A*02:03; [17]): 0.0184 µM
- Kd (HLA-A*02:17; source organism: Dengue virus 3 China/80-2/1980): 0.425 µM
- Kd (HLA-A*32:01): 1.49 µM

Sequence: SSGYYSTTI
- IC50 (HLA-A*02:01 [3]): 65.2 µM
- IC50 (HLA-A*11:01; [13]): 33.8 µM
- IC50 (HLA-A*24:02; [13]): 2.14 µM

Sequence: TELEPPCRF
- Kd (HLA-B*18:01; [9]): 0.892 µM
- Kd (HLA-B*40:01; [9]): ≥ 28.5 µM
- Kd (HLA-B*40:02; [9]): 14 µM
- Kd (HLA-B*44:02; [9]): 0.099 µM
- Kd (HLA-B*44:03; [9]): 0.0629 µM
- Kd (HLA-B*45:01; [9]): 12.1 µM

Sequence: TLAQSLIDV
- Kd (HLA-A*02:01 [4]): ≤ 0.001 µM
- Kd (HLA-A*02:11): 0.002 µM
- Kd (HLA-A*02:12): 0.004 µM
- Kd (HLA-A*02:19): 0.006 µM

Sequence: TLMAMDLGEL
- Kd (HLA-A*02:01 [2]; [18]): 0.0145 µM
- Kd (HLA-A*02:03; source organism: Dengue virus 2 Peru/IQT2913/1996): 0.00836 µM
- Kd (HLA-A*02:17; [18]): 0.273 µM

Sequence: TLTAAVLLLV
- Kd (HLA-A*02:03; [19]): 0.00574 µM
- Kd (HLA-A*02:17; [19]): 0.219 µM

Sequence: TVIPFYFVW
- Kd (HLA-B*15:17): 0.0068 µM
- Kd (HLA-B*57:01 [5]): 0.275 µM
- Kd (HLA-B*58:01 [6]): 0.0413 µM

Sequence: VASEMAEALK
- Kd (HLA-B*58:01 [1]; [15]): ≥ 10 µM

Sequence: VGVVVSTNR
- IC50 (HLA-A*11:01; [8]): 21.5 µM

Sequence: VIASSGMLW
- Kd (HLA-B*58:01 [1]; [17]): 0.056 µM

Sequence: VTRLENLMW
- Kd (HLA-B*57:01 [7]): 0.00379 µM

Sequence: WMSSEGAWKH
- Kd (HLA-B*58:01 [1]; [11]): 0.215 µM

Sequence: YDQMKCKSL
- Kd (HLA-B*18:01; [10]): ≥ 77.5 µM
- Kd (HLA-B*40:01; [10]): ≥ 76.1 µM
- Kd (HLA-B*40:02; [10]): 3.2 µM
- Kd (HLA-B*44:02; [10]): ≥ 76.2 µM
- Kd (HLA-B*44:03; [10]): ≥ 78.1 µM
- Kd (HLA-B*45:01; [10]): ≥ 59.4 µM
